The values below come from paper PMC9893541 (BMC Biology, 2023).

B3: FC-(Alk3)2 (Fc fusion, UniProt P36894 24-152, looked up)
chain: QNLDSMLHGTGMKSDSDQKKSENGVTLAPEDTLPFLKCYCSGHCPDDAINNTCITNGHCFAIIEEDDQGETTLASGCMKYEGSDFQCKDSPKAQLRRTIECCRTNLCNQYLQPTLPPVVIGPFFDGSIR
notes: type 1 receptor Alk3 (BMPR1A) in a recombinant chimeric Fc-receptor; also called chimeric FC-receptor; source: bought: R&D (Cat# 315-BR-100/CF)
B4: FC-(ActRIIb)2 (Fc fusion, UniProt Q13705-1 19-137, looked up)
chain: SGRGEAETRECIYYNANWELERTNQSGLERCEGEQDKRLHCYASWRNSSGTIELVKKGCWLDDFNCYDRQECVATEENPQVYFCCCEGNFCNERFTHLPEAGGPEVTYEPPPTAPTLLT
notes: type 2 receptor ActRIIb (ACVR2B) in a recombinant chimeric Fc-receptor; also called (ActRIIB)2-Fc; source: bought: R&D (Cat# 339-RB-100/CF)
B7: GDF5 homodimer (ligand, human, UniProt P43026 382-501, looked up)
chain: APLATRQGKRPSKNLKARCSRKALHVNFKDMGWDDWIIAPLEYEAFHCEGLCEFPLRSHLEPTNHAVIQTLMNSMDPESTPPTCCVPTRLSPISILFIDSANNVVYKQYEDMVVESCGCR
notes: Growth and Differentiation Factor 5 (GDF5), mature domain; Dimer stabilised by an inter-chain disulfide bond; also called homodimeric GDF5; Growth and Differentiation Factor 5
B8: mature GDF5 (single chain) (natural protein, human, UniProt P43026 382-501, looked up)
chain: APLATRQGKRPSKNLKARCSRKALHVNFKDMGWDDWIIAPLEYEAFHCEGLCEFPLRSHLEPTNHAVIQTLMNSMDPESTPPTCCVPTRLSPISILFIDSANNVVYKQYEDMVVESCGCR
notes: Growth and Differentiation Factor 5 (GDF5), mature domain; The single chain before dimerisation; used for the rows on dimer formation; also called GDF5 monomer; GDF5 chain; source: E. coli Rosetta (DE3), inclusion bodies, solubilised in urea, clarified (minimum 90 % purity)
B10: FC-(BMPR2)2 (Fc fusion, UniProt Q13873 27-150, looked up)
chain: SQNQERLCAFKDPYQQDLGIGESRISHENGTILCSKGSTCYGLWEKSKGDINLVKQGCWSHIGDPQECHYEECVVTTTPPSIQNGTYRFCCCSTDLCNVNFTENFPPPDTTPLSPPHSFNRDET
notes: type 2 receptor BMPR2 in a recombinant chimeric Fc-receptor; source: bought: R&D (Cat# 811-BR-100)

Data set [1] addresses B8. Description: oxidative refolding of mixed chains, heparin affinity chromatography, SDS-PAGE and Western blot (reducing and non-reducing), MALDI-TOF mass spectrometry; solubilised inclusion bodies mixed in a 1:1 molar ratio, refolded 5 days in 0.1 M Tris pH 8.5, 0.5 M L-arginine, 0.3 % CHAPS, 150 mM NaCl, 1 mM reduced and 1 mM oxidized glutathione, 1 mM EDTA; heparin column eluted with 150-650 mM NaCl; disulfide-linked dimers. The note with it: both partners purified.

Data set [2] deals with the molecule itself. Described as above.
For data set [3], the target named is T1, BMP4/GDF5 heterodimer (human, UniProt P12644 293-408; P43026 382-501).
T1 construct: additional Met residue on the N-terminus of the BMP4 construct; bone morphogenetic protein 4 (BMP4), mature domain; Growth and Differentiation Factor 5 (GDF5), mature domain; Made by people from two natural mature chains; disulfide-linked dimer; also called GDF5/BMP4; copies: 1 + 1
T1 sequence 1: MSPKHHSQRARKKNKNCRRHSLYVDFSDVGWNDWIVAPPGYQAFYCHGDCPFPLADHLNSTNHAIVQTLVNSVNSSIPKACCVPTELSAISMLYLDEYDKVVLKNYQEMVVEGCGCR
T1 sequence 2: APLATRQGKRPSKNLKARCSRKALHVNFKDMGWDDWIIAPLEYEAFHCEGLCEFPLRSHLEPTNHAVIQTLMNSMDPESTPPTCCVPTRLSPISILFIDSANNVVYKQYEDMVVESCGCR
Description: SPR; BIAcore T-200; chimeric Fc-type 1 receptor coupled to a Series S Protein A chip; ligands 6.25-0.049 nM flowed at 50 uL/min, 300 s association, 1000 s dissociation; 20 mM HEPES pH 7.4, 350 mM NaCl, 0.005 % P-20, 0.5 mg/mL BSA, 3.4 mM EDTA; kinetic 1:1 fit (also a bivalent fit); apparent KD = kd/ka; average of N=2. The note with it: both partners purified.

The target of data set [4] is B7. Put plainly: SPR; chimeric Fc-type 2 receptor coupled to a Series S Protein A chip; ligands 100-0.198 nM in SPR buffer, 300 s association, 1000 s dissociation; steady-state analysis; apparent affinities; average of N=2. The note with it: both partners purified. On the technique in general: Surface plasmon resonance follows binding to a sensor surface in real time, without labels.

The target of data set [5] is T2, BMP2/GDF5 heterodimer (human, UniProt P12643 283-396; P43026 382-501).
T2 construct: bone morphogenetic protein 2 (BMP2), mature domain; Growth and Differentiation Factor 5 (GDF5), mature domain; Made by people from two natural mature chains; disulfide-linked dimer; also called GDF5/BMP2; WT heterodimer; copies: 1 + 1
The data set is described as above. The note with it: both partners purified.

Data set [6] has as its target T1, BMP4/GDF5 heterodimer. The description is as above. The note with it: both partners purified.
Data set [7] addresses B4. The description is as above. The note with it: both partners purified.
Data set [8] addresses B10. The data set is described as above. The note with it: both partners purified.
Data set [9] concerns the target B3. Description: SPR; BIAcore T-200; chimeric Fc-type 1 receptor coupled to a Series S Protein A chip; ligands 6.25-0.049 nM flowed at 50 uL/min, 300 s association, 1000 s dissociation; 20 mM HEPES pH 7.4, 350 mM NaCl, 0.005 % P-20, 0.5 mg/mL BSA, 3.4 mM EDTA; kinetic 1:1 fit (also a bivalent fit); apparent KD = kd/ka; average of N=2. The note with it: both partners purified.

Data set [10] addresses T3, FC-(Alk6)2 (UniProt O00238 14-126).
T3 construct: type 1 receptor Alk6 (BMPR1B) in a recombinant chimeric Fc-receptor; also called chimeric FC-receptor; source: bought: R&D (Cat# 505-PR-100)
T3 sequence (looked up): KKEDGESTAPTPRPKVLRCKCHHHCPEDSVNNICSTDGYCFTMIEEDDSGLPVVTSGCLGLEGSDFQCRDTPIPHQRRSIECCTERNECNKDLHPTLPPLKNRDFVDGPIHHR
The data set is described as above. The note with it: both partners purified.

B1: mature BMP2 (single chain) (natural protein, human, UniProt P12643 283-396, looked up)
chain: QAKHKQRKRLKSSCKRHPLYVDFSDVGWNDWIVAPPGYHAFYCHGECPFPLADHLNSTNHAIVQTLVNSVNSKIPKACCVPTELSAISMLYLDENEKVVLKNYQDMVVEGCGCR
notes: bone morphogenetic protein 2 (BMP2), mature domain; The single chain before dimerisation; used for the rows on dimer formation; also called BMP2 monomer; BMP2 chain; source: E. coli Rosetta (DE3), inclusion bodies, solubilised in urea, clarified (minimum 90 % purity)
Take B1: the binding result in [1] and in data set [2] was “binds” throughout.

B2: mature BMP2 L333P (single chain) (natural protein, human, UniProt P12643 283-396, looked up)
chain: QAKHKQRKRLKSSCKRHPLYVDFSDVGWNDWIVAPPGYHAFYCHGECPFPPADHLNSTNHAIVQTLVNSVNSKIPKACCVPTELSAISMLYLDENEKVVLKNYQDMVVEGCGCR
notes: bone morphogenetic protein 2 (BMP2), mature domain, with L333P; The single chain before dimerisation; used for the rows on dimer formation; also called L333P BMP2; source: E. coli Rosetta (DE3), inclusion bodies, solubilised in urea
In the case of B2, the binding result in data set [1] and in data set [2] was “binds” each time. As for B3, in [3], the Kd came to 0.029 nM. As for B4, the binding result in data set [4], in [5] and in data set [6] was “binds” throughout.

B5: BMP4 homodimer (ligand, human)
chain: MSPKHHSQRARKKNKNCRRHSLYVDFSDVGWNDWIVAPPGYQAFYCHGDCPFPLADHLNSTNHAIVQTLVNSVNSSIPKACCVPTELSAISMLYLDEYDKVVLKNYQEMVVEGCGCR
notes: additional Met residue on the N-terminus of the BMP4 construct; bone morphogenetic protein 4 (BMP4), mature domain; Dimer stabilised by an inter-chain disulfide bond; also called homodimeric BMP4
For B5, the binding result in data set [7] and in data set [8] was “binds” throughout. Further, the Kd in data set [9] came out at 0.072 nM.

B6: mature BMP4 (single chain) (natural protein, human)
chain: MSPKHHSQRARKKNKNCRRHSLYVDFSDVGWNDWIVAPPGYQAFYCHGDCPFPLADHLNSTNHAIVQTLVNSVNSSIPKACCVPTELSAISMLYLDEYDKVVLKNYQEMVVEGCGCR
notes: additional Met residue on the N-terminus of the BMP4 construct; bone morphogenetic protein 4 (BMP4), mature domain; The single chain before dimerisation; used for the rows on dimer formation; also called BMP4 monomer; monomeric BMP4; source: E. coli Rosetta (DE3), inclusion bodies, solubilised in urea, clarified (minimum 90 % purity)
Turning to B6, the binding result in data set [1] and in data set [2] was “binds” each time. B7: in [9], the Kd was determined as 0.328 nM.

In the case of B8, the binding result in data set [2] was “binds”.

B9: BMP2_L333P/GDF5 heterodimer (complex, human)
chain 1: QAKHKQRKRLKSSCKRHPLYVDFSDVGWNDWIVAPPGYHAFYCHGECPFPPADHLNSTNHAIVQTLVNSVNSKIPKACCVPTELSAISMLYLDENEKVVLKNYQDMVVEGCGCR
chain 2: APLATRQGKRPSKNLKARCSRKALHVNFKDMGWDDWIIAPLEYEAFHCEGLCEFPLRSHLEPTNHAVIQTLMNSMDPESTPPTCCVPTRLSPISILFIDSANNVVYKQYEDMVVESCGCR
notes: bone morphogenetic protein 2 (BMP2), mature domain, with L333P; Growth and Differentiation Factor 5 (GDF5), mature domain, wild type; Predicted by the authors to have one disrupted type 1 site (GFBW) and one functional site (BFGW); also called mutant heterodimer; copies: 1 + 1
For the molecule B9, the “fold decrease in KD (so in the source) against WT GDF5 homodimer” value in data set [10] was ~5 fold.

B10: the binding result in data set [5] and in data set [6] was “binds” each time.
